Source: US20220041753A1 (H LEE MOFFITT CANCER CENTER AND RESEARCH INSTITUTE, published 2022)

Molecular target: T1, ZNRF3 ECD (UniProt Q9ULT6 56-219, limits assumed)
T1 construct: extracellular domain; also called ZNRF3 extracellular domain; fluorescently labeled ZNRF3 ECDs
T1 sequence (looked up): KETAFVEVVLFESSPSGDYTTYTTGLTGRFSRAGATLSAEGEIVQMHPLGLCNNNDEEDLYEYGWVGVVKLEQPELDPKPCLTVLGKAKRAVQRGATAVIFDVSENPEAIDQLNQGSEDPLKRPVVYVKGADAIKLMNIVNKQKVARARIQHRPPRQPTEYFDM
Test: surface plasmon resonance (FIG. 3B)

Kd: 80 nM
B1: ZNRF3-specific scFv "Z6" (scFv)
scFv: ASQVQLVQSGAEVKNPGASVKVSCKASGYAFTSYGISWVRQAPGQGLEWMGWISAYTRNTNYAQKFQGRVTLTTDTSTSTAYMELRSLRSDDTAIYYCARDARYSLGVGAFDVWGQGTMVTVSSGILGSGGGGSGGGGSGGGGSETTLTQSPAFMSATPGDKVSISCKASRDIDDDLNWYQQKPGEAAISIIQEATTLVPGIPPRFSGSGYGTDFTLTINNIESEDAAYYFCLQHDDVPYTFGQGTKLEIKSGIL
notes: the display fusion is not described; also called ZNRF3-specific single-chain antibody variable fragment (scFv)
